Assay results taken from article PMC10866537.

What was measured:
[1] = biological target: mouse 4-1BB–Fc protein (mouse) (UniProt P20334); assay: SPR; BIAcore X100; siglec-4–Fc or m4-1BB–Fc amine-coupled to CM5; h4-1BB–HIS or m-siglec-4–HIS flowed at 18 to 3000 nM in HBS-EP (10 mM Hepes pH 7.4, 150 mM NaCl, 3 mM EDTA, 0.05% P20); fitted with a 1:2 binding model
4-1BBL (Homo sapiens) = 4-1BBL (Homo sapiens) (UniProt P41273); details: cited from earlier work
4-1BBL (Homo sapiens), sequence (P41273 whole entry): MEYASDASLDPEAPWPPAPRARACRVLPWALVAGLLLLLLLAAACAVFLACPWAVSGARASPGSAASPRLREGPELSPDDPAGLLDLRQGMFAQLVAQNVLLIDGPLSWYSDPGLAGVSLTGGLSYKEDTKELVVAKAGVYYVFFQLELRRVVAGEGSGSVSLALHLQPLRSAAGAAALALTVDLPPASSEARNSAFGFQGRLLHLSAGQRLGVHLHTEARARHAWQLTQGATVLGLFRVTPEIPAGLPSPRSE

mouse 4-1BB–Fc protein (mouse), sequence (P20334 24-187): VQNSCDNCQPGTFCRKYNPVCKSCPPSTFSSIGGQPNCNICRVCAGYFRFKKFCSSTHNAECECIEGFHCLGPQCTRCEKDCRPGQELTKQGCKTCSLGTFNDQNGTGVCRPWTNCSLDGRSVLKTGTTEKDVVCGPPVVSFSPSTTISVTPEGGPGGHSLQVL
4-1BB, sequence (Q07011 24-255): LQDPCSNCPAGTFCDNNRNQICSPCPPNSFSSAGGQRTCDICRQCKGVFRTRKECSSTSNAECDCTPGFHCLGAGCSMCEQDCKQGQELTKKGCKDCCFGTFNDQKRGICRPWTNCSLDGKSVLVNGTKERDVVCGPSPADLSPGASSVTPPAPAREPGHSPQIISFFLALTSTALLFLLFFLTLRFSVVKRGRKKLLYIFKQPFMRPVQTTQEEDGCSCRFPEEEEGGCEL

Substance	Kd [1]	Kd (4-1BBL (Homo sapiens))
mouse siglec-4–HIS protein (domain or fragment)	860 nM	–
4-1BB (from UniProt Q07011)	–	85.6 nM
